The target in one data set is BIR1 C12A/S87A/N28C-GdI (UniProt P98170). Briefly: DEER.
Data set [1] concerns the molecule itself. Briefly: DEER.
The data set “NMR titration” deals with the molecule itself. The data set is described as follows: NMR titration.
Data set [2] deals with the molecule itself. Briefly: DEER. The source holds these as a separate data set.

Residue numbers refer to the chain shown, from its start. In names and notes the source's numbering stands.

With “BIR1 C12A/S87A/N28C-GdI (from UniProt P98170 10-99) (domain or fragment)”, the Kd (commonly the equilibrium constant for the complex coming apart) with BIR1 C12A/S87A/N28C-GdI was determined as 97.5 µM.

B1: WT BIR1 C12-GdI (first baculoviral IAP repeat domain of XIAP, spin-labelled at C12 with BrPSPy-DO3A-Gd3+) (domain or fragment)
chain: KTCVPADINKEEEFVEEFNRLKTFANFPSGSPVSASTLARAGFLYTGEGDTVRCFSCHAAVDRWQYGDSAVGRHRKVSPNCRFINGFYLE
modifications: BrPSPy-DO3A-Gd3+ (GdI) spin label on C12 via a thioether bond
For B1, binding in the data set “DEER [1]” was characterised by a dissociation constant (Kd) of 126 ± 40 µM.

B2: S87A BIR1 mutant, without spin label (domain or fragment)
chain: B1 chain with S78A
modifications: 15N isotope-labelled (NMR samples)
On to B2, for which, in “NMR titration”, the Kd turned out to be 20.3 ± 4.6 µM.

B3: WT BIR1 (first baculoviral IAP repeat domain of XIAP), without spin label (domain or fragment)
chain: B1 chain
modifications: 15N isotope-labelled (NMR samples)
Consider B3, for which, in “NMR titration”, binding was characterised by a dissociation constant (Kd) of 4.7 ± 2 µM.

B4: BIR1 C12A/E22C-GdI (domain or fragment)
chain: B1 chain with C3A, E13C
modifications: BrPSPy-DO3A-Gd3+ (GdI) spin label on C22 (E22C) via a thioether bond
In “DEER [1]”, B4 showed a Kd of 126 ± 40 µM.

B5: BIR1 C12A/V24C-GdI (domain or fragment)
chain: B1 chain with C3A, V15C
modifications: BrPSPy-DO3A-Gd3+ (GdI) spin label on C24 (V24C) via a thioether bond
As to B5, the Kd in “DEER [1]” was 126 ± 40 µM.

B6: BIR1 C12A/K19C-GdI (domain or fragment)
chain: B1 chain with C3A, K10C
modifications: BrPSPy-DO3A-Gd3+ (GdI) spin label on C19 (K19C) via a thioether bond
B6: in the data set “DEER [1]”, the affinity, expressed as Kd, was 126 ± 40 µM.

B7: BIR1 C12A/N28C-GdI (domain or fragment)
chain: B1 chain with C3A, N19C
modifications: BrPSPy-DO3A-Gd3+ (GdI) spin label on C28 (N28C) via a thioether bond
With B7, the values for the Kd in the data set “DEER [2]” and in the data set “DEER [1]” were 11.3 ± 3.8 µM and 126 ± 40 µM, respectively.

The record behind these values is publication doi:10.1101/2020.03.27.011510 (bioRxiv, 2020).
